Results: patent US20230293705A1, “NANOPARTICLES INCLUDING A GLATIRAMOID USEFUL IN POLYNUCLEOTIDE DELIVERY” (King AbdulAziz University, priority 2017, published 2023)
No end group written: not given here.

Experiments:
pDNA (pGL3) = assay: Agarose gel electrophoresis of polycation-pDNA nanoparticles; type: physicochemical; conditions: for immobilization of pDNA in agarose gel: N/P ratio of 0.5
Procedure: Nanoparticle Formation. GA-pDNA nanoparticles, K100-pDNA nanoparticles, and K9-pDNA nanoparticles were prepared by adding 15 µL of the GA, K100, or K9 solutions at polymer nitrogen to pDNA phosphate ([…]) of pDNA (TAE Buffer (1x) was used as a solution for DNA storage), followed by repeated pipetting for 20-25 seconds. At that point, 15 µL of CaCl2 (0 or 38 mmol/L) was added to determine the effect of calcium. After formulating, samples were stored at 4° C. for ~20 minutes. PEI-pDNA nanoparticles were prepared by adding 15 µL of PEI solution (N/P ratio of 10) to 10 µL (0.1 µg/µL) of pDNA followed by pipetting for 20-25 seconds. After preparing PEI-pDNA nanoparticles, they were stored at 4° C. for ~20 minutes. All nanoparticles in this study were prepared immediately before each experiment.
Agarose Gel Electrophoresis. GA-pDNA nanoparticles, K100-pDNA nanoparticles, and K9-pDNA nanoparticles were prepared as defined above and subsequently, 4 µL of Tris-acetate-EDTA (TAE) buffer was added. Then, 4 µL of SYBR Green 1 was mixed with the nanoparticles. Afterward, the mixture was stored at 4° C. for 20-25 minutes. Then, 7 µL of 6X DNA loading dye (Takara Bio Inc., Japan) was added. A one kb DNA ladder (Promega, Madison, WI) was used. The mixture solutions were loaded onto a 1% agarose gel, and electrophoresed for 30 minutes at 110 V.

A549 cells = assay: MTS cytotoxicity assay in A549 cells; type: cell-based, human
Procedure: (§1) Cytotoxicity Assay. Cytotoxicity of GA, K100, and K9, PEI, and CaCl2 was determined using a Cell Titer 96® AQueous Non-Radioactive Cell Proliferation Assay (MTS) obtained from Promega (Madison, Wisconsin). A549 and HeLa cells were cultured in a 96-well plate as described previously. Cells were treated with the samples for ~24 hours. Then, the media were replaced with a mixture of 100 µL of fresh serum medium and 20 µL of MTS. The plate was incubated for 3-4 hours in the incubator. To determine cell viability, the absorbance of each well was measured by a microplate reader (SpectraMax; Molecular Devices Crope, CA) at 490 nm and normalized to untreated control cells.

HeLa cells = assay: MTS cytotoxicity assay in HeLa cells; type: cell-based, human; conditions: ~24 hours treatment
Procedure: as §1

Molecule: Glatiramer Acetate [GA]
- immobilization of pDNA in agarose gel (pDNA (pGL3)): able to immobilize pDNA completely
- cytotoxicity (A549 cells; up to 1 mg/mL, cell line not stated at the place (A549 and HeLa tested)): negligible cytotoxicity

Molecule: K9: KKKKKKKKK (SEQ ID NO: 1), C-terminal amide, Mw = 1170.65 Da (KKKKKKKKK-NH2)
- immobilization of pDNA in agarose gel (pDNA (pGL3)): did not
- complexation of pDNA in agarose gel (pDNA (pGL3); N/P ratio of 1): did not completely complex pDNA

B1: K100: (KKKKKKKKKK)n=10 (SEQ ID NO: 2), Mw = 16,000 Da, high molecular weight polylysine (peptide)
chain: KKKKKKKKKKKKKKKKKKKKKKKKKKKKKKKKKKKKKKKKKKKKKKKKKKKKKKKKKKKKKKKKKKKKKKKKKKKKKKKKKKKKKKKKKKKKKKKKKKKK
modifications: ten repeats of SEQ ID NO:2 motif
- immobilization of pDNA in agarose gel (pDNA (pGL3)): able to immobilize pDNA completely
- cytotoxicity (MTS) (A549 cells; A549 cells, ~24 hours treatment): highly cytotoxic at low concentrations
- cytotoxicity (MTS) (HeLa cells): highly cytotoxic at low concentrations
